Read-outs that look alike come from different tables or passages of the source. Blank lines part the entries; values can stand above or below the molecule they belong to.
Assays:
[1] = target: sRAGE-Fc sRAGE (Homo sapiens) (UniProt Q15109); settings: cited from earlier work
[2] = target: RAGE V-domain (Mus musculus) (UniProt Q62151); settings: cited from earlier work
[3] = target: RAGE C1 domain (Homo sapiens) (UniProt Q15109); settings: cited from earlier work
[4] = target: RAGE (Bos taurus) (UniProt Q28173); settings: cited from earlier work
[5] = target: RAGE (Bos taurus) (UniProt Q28173); settings: cited from earlier work; remark: listed apart in the source
[6] = target: T1, mAbGB3.1-enriched bovine RAGE (bovine, UniProt Q28173 23-416, N-glycans enriched for carboxylated glycans); experiment: ELISA
T1 sequence (looked up): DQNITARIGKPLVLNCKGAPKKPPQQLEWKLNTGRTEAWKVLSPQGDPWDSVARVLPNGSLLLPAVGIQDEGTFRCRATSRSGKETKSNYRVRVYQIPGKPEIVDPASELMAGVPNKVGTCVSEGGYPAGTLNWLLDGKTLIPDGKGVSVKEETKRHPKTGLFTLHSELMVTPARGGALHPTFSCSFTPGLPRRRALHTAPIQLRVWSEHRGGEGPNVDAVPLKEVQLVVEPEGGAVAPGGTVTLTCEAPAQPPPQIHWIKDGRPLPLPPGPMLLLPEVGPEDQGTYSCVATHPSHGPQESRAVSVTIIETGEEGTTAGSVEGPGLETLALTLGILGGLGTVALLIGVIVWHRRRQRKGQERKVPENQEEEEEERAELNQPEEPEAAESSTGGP

[7] = target: T2, total bovine lung RAGE (bovine, UniProt Q28173 23-416, N-glycans (native glycosylation)); experiment: ELISA
T2 sequence (looked up): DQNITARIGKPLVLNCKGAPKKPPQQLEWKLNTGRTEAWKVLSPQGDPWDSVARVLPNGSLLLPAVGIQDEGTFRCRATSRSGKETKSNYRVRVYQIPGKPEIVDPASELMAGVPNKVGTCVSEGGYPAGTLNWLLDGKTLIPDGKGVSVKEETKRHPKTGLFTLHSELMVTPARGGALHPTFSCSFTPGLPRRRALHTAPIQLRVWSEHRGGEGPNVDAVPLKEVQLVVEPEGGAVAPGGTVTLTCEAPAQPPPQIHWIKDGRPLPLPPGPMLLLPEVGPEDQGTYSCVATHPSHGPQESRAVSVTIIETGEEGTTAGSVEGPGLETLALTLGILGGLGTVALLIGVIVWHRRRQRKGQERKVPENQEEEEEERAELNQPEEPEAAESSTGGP

[8] = target: His-tagged human sRAGE expressed in U373 cells (human, UniProt Q15109 23-342, N-glycans); experiment: ELISA
Chain of His-tagged human sRAGE expressed in U373 cells (Q15109 23-342): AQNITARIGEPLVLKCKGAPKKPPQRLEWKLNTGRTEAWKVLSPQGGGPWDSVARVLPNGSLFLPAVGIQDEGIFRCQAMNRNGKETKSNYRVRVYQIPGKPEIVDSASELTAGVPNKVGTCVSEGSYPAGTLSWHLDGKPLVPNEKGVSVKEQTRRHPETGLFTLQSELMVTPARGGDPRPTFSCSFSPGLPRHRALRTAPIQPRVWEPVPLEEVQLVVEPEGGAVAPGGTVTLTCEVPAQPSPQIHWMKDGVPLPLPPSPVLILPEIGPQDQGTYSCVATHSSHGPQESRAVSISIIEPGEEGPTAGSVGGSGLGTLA

[9] = target: His-tagged human sRAGE expressed in HeLa cells (human, UniProt Q15109 23-342, N-glycans at N25 and N81); experiment: ELISA
Chain of His-tagged human sRAGE expressed in HeLa cells (Q15109 23-342): as above

[10] = target: His-tagged human sRAGE expressed in H4 cells (human, UniProt Q15109 23-342, N-glycans); experiment: ELISA
Chain of His-tagged human sRAGE expressed in H4 cells (Q15109 23-342): as above

[11] = target: His-tagged human sRAGE expressed in HEK293 cells (human, UniProt Q15109 23-342, N-glycans); experiment: ELISA
Chain of His-tagged human sRAGE expressed in HEK293 cells (Q15109 23-342): as above

[12] = target: His-tagged human sRAGE expressed in HL60 cells (human, UniProt Q15109 23-342, N-glycans); experiment: ELISA
Chain of His-tagged human sRAGE expressed in HL60 cells (Q15109 23-342): as above

Chain of RAGE V-domain (Mus musculus) (Q62151 23-109): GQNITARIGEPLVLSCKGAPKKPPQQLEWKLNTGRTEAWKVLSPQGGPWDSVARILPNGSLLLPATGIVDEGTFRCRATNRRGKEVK
Chain of sRAGE-Fc sRAGE (Homo sapiens) (Q15109 23-342): as the sequence (Q15109 23-342) above
Chain of RAGE C1 domain (Homo sapiens) (Q15109 124-221): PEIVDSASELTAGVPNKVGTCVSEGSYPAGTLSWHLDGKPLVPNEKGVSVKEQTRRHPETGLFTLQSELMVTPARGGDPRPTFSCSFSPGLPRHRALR

Molecule: S100A12 (from UniProt P80511)
Kd [1]: 80 nM | Kd [2]: 90 nM | Kd [3]: 90 nM

Molecule: S100A8/A9 (from UniProt P05109)
Kd [4]: 34.4 nM | Kd [5]: 7.62 nM

Kd [6]: 133 ± 46.4 nM | Kd [7]: 51.8 ± 20.6 nM | binding result [8]: binds | binding result [9]: binds | binding result [10]: binds | binding result [11]: binds | binding result [12]: binds
B1: recombinant human S100A12 (ligand, UniProt P80511 1-92, looked up)
chain: MTKLEEHLEGIVNIFHQYSVRKGHFDTLSKGELKQLLTKELANTIKNIKDKAVIDEIFQGLDANQDEQVDFQEFISLVAIALKAAHYHTHKE

Kd [6]: 30.9 ± 3.6 nM | Kd [7]: 53.1 ± 7.8 nM
B2: purified human S100A11 (ligand, UniProt P31949 1-105, looked up)
chain: MAKISSPTETERCIESLIAVFQKYAGKDGYNYTLSKTEFLSFMNTELAAFTKNQKDPGVLDRMMKKLDTNSDGQLDFSEFLNLIGGLAMACHDSFLKAVPSQKRT

From PMC2879712 (Journal of cellular biochemistry, 2010)
